Several values for one entry are separate records, joined by “and”; a condition that tells them apart may be missing. Equal values may be shown once. One block for each binder: values may come before it.
Columns and labels:
[1] = target: T1, hNectin-1 (ACRO, PV1-H5223) (human, UniProt Q15223 31-334); test: ELISA, coated antigen
T1 construct: bought; construct not described
T1 sequence (looked up): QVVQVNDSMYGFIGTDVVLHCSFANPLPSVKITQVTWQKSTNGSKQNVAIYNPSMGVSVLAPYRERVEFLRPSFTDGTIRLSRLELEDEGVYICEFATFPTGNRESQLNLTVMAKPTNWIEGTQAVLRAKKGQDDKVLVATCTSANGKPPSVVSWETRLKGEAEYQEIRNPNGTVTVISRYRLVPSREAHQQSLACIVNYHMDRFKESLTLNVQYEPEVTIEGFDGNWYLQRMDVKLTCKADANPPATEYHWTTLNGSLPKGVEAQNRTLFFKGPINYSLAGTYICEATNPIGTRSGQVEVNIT
Excerpt: (§1) The binding activity of the antibodies was detected by ELISA.
In this assay, the binding of different antibodies to human Nectin-4 homologous proteins hNectin-1 (ACRO, PV1-H5223), hNectin-2 (ACRO, PV2-H52E2), hNectin-3 (ACRO, PV3-H52E4), and hNectin-4-His was detected by ELISA to determine the specificity of the antibodies. For the methodology and procedures, see Example 4. Antigens of interest ([…]) were immobilized; after blocking, serially diluted antibodies (2-fold serially diluted from […]) were added, and HRP-labeled anti-human-Kappa secondary antibody was added for chromogenic reaction.

[2] = target: T2, human Nectin-4 extracellular antigen hNectin-4-His (human, UniProt Q96NY8 32-349); test: ELISA, coated antigen
T2 construct: C-terminal 8xHis tag included
T2 sequence: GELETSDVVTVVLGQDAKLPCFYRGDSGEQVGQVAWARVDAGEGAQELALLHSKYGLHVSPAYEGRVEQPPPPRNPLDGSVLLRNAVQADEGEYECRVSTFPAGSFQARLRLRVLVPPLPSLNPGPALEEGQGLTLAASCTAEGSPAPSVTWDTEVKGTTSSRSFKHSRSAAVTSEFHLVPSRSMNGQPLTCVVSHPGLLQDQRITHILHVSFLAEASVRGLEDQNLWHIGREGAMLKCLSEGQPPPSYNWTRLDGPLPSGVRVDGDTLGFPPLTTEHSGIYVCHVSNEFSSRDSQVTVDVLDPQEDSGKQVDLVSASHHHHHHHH

[3] = target: T3, monkey cNectin-4 protein (ACRO, NE4-C52H4) (cynomolgus monkey, UniProt A0A2K5WES1 32-349); test: ELISA, coated antigen
T3 construct: bought; construct not described; also called cynomolgus monkey Nectin-4
T3 sequence: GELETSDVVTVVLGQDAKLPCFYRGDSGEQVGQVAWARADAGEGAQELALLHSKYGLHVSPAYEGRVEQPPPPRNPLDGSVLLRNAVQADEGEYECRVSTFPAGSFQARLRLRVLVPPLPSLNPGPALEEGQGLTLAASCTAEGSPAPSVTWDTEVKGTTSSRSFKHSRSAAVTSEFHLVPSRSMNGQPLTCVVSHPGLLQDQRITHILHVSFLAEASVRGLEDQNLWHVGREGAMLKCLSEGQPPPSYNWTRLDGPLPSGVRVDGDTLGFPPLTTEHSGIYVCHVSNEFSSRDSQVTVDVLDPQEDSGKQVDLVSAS

[4] = target: T4, mouse mNectin-4 protein (ACRO, NE4-M52H3) (mouse, UniProt Q8R007 31-347); test: ELISA, coated antigen
T4 construct: bought; construct not described; also called mouse Nectin-4
T4 sequence (looked up): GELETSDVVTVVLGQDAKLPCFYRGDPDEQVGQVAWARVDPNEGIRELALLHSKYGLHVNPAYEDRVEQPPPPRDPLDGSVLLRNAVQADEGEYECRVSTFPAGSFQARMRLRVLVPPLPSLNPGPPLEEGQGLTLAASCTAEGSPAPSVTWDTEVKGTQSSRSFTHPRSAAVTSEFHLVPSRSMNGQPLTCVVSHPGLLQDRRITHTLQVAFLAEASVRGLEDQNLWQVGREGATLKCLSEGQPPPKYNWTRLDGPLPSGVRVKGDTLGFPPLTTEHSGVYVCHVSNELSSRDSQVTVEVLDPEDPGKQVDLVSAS

[5] = target: T2, human Nectin-4 extracellular antigen …; test: ELISA, coated hNectin-4-His
Excerpt: as §1

[6] = target: T2, human Nectin-4 extracellular antigen …; test: ELISA, coated hNectin-4-His; remark: listed apart in the source
Excerpt: as §1

EC50 [2]: 0.043 µg/mL | EC50 [3]: 0.036 µg/mL | EC50 [4]: 0.037 µg/mL
B1: antibody 1G8 (antibody, human IgG1, kappa, V domains shown)
VH: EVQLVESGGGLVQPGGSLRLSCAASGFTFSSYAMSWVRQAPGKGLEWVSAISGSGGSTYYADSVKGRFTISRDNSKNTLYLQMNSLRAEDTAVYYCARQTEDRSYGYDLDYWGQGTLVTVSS
VL: DIQMTQSPSSLSASVGDRVTITCRASQGISSYLAWYQQKPGKAPKLLIYAASSLQSGVPSRFSGSGSGTDFTLTISSLQPEDFATYYCQQHYTTPPTFGQGTKVEIKR
binding result [1]: no binding (tested: 2-fold serially diluted from 2 g/mL)

EC50 [2]: 0.041 µg/mL | EC50 [3]: 0.041 µg/mL | EC50 [4]: 0.041 µg/mL | EC50 [5]: 0.041 µg/mL and 0.043 µg/mL
B2: antibody 10F4 (antibody, human IgG1, kappa, V domains shown)
VH: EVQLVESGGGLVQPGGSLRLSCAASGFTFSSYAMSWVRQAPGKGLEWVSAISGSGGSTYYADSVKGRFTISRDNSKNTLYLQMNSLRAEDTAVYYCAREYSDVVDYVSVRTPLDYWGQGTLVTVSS
VL: B1 VL
binding result [1]: no binding (tested: 2-fold serially diluted from 2 g/mL)

EC50 [2]: 0.036 µg/mL | EC50 [3]: 0.034 µg/mL | EC50 [4]: 0.034 µg/mL | EC50 [6]: 0.005 µg/mL
B3: antibody 1F3 (antibody, human IgG1, kappa, V domains shown)
VH: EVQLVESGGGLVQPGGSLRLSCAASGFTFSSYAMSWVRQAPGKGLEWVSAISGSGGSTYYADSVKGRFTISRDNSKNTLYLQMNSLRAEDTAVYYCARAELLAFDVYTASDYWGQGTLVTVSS
VL: B1 VL
binding result [1]: no binding (tested: 2-fold serially diluted from 2 g/mL)
